In article PMC12667445, “Targeting RBM10‐Repressed RORB Activity in Liquid Condensates Inhibits Lysosomal Biogenesis and Neuroblastoma Progression via Affecting NF‐κB Signaling” (Advanced Science, 2025):

Biological target: T1, recombinant full‐length MBP‐tagged RBM10 (human, UniProt P98175 1-930)
T1 construct: RBM10 (variant 1 is the form found in NB cells), full length; Printed domain limits: RRM1 129-209, ZF1 212-242, RRM2 300-384, ZF2 759-784, G patch 858-904; The construct and its expression host are not described in the main text; They may be in the Supporting Information; source: recombinant, purified
T1 sequence (P98175 whole entry, the tested form may be a part): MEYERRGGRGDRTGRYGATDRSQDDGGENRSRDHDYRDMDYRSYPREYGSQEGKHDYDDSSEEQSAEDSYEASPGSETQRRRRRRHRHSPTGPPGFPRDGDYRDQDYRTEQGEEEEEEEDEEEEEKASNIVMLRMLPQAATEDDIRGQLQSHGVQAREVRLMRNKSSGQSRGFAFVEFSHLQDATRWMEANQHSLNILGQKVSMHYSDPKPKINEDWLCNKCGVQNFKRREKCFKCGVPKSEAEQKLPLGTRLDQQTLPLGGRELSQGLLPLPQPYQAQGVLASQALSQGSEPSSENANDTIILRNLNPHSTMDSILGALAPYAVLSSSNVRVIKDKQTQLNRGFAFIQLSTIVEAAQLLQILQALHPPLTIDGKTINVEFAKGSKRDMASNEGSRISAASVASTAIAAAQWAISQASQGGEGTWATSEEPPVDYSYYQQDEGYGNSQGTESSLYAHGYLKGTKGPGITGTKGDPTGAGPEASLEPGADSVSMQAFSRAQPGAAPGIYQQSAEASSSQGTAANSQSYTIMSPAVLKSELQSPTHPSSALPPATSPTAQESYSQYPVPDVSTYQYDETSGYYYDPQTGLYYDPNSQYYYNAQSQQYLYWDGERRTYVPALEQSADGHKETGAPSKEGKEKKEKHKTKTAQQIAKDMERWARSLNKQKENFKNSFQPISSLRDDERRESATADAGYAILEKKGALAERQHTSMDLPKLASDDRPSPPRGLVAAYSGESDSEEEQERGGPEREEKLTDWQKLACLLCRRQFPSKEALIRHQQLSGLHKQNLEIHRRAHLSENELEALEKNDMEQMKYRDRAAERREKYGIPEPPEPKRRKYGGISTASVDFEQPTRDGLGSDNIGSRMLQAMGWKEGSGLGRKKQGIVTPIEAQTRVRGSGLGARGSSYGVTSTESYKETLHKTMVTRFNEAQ
Experiment: co-IP; purified recombinant GST-tagged RORB and MBP-tagged RBM10, full-length or truncated; western blot
Settings: both partners purified

B1: recombinant full‐length GST‐tagged RORB (natural protein, UniProt Q92753-1 1-459, looked up)
chain: MRAQIEVIPCKICGDKSSGIHYGVITCEGCKGFFRRSQQNNASYSCPRQRNCLIDRTNRNRCQHCRLQKCLALGMSRDAVKFGRMSKKQRDSLYAEVQKHQQRLQEQRQQQSGEAEALARVYSSSISNGLSNLNNETSGTYANGHVIDLPKSEGYYNVDSGQPSPDQSGLDMTGIKQIKQEPIYDLTSVPNLFTYSSFNNGQLAPGITMTEIDRIAQNIIKSHLETCQYTMEELHQLAWQTHTYEEIKAYQSKSREALWQQCAIQITHAIQYVVEFAKRITGFMELCQNDQILLLKSGCLEVVLVRMCRAFNPLNNTVLFEGKYGGMQMFKALGSDDLVNEAFDFAKNLCSLQLTEEEIALFSSAVLISPDRAWLIEPRKVQKLQEKIYFALQHVIQKNHLDDETLAKLIAKIPTITAVCNLHGEKLQVFKQSHPEIVNTLFPPLYKELFNPDCATGCK
notes: The construct and its expression host are not described in the main text; They may be in the Supporting Information; source: recombinant, purified
B1: binds.
